Assay results taken from patent US20250042974A1, “LIPID MEDIATOR CHAPERONE AND USES THEREOF” (The Children's Medical Center Corporation, priority 2021, published 2025).
“Also recorded” adds a separate entry of the source.

How the values were obtained:
[1] = system: Neutrophils; assay: fMLP-dependent neutrophil ROS generation; assay type: cell-based, mouse; details: ApoM-S1P 100 nM S1P, ApoA1-Iloprost 160 nM drug, area under the curve
Method: Peritoneal Neutrophils were isolated from C57Bl/6 mice after thioglycolate elicitation. Thioglycolate (2 ml of 2% v/v) resuspended in water was administered by intraperitoneal injection. After 4 hours, mice were euthanized and 5 ml of HBSS was injected intraperitoneally, the abdomen was messaged for 1 minute and the peritoneal fluid was removed. The resulting cells were pelleted, RBCs were lysed with ACK buffer, re-pelleted and resuspended in PBS-glucose. Cells were counted, 5×10^5 cells were dispersed into 96 well clear bottom plates containing luminol 100 mM and 10 U/ml of horseradish peroxidase and read for blank background. F-Met-Leu-Phe (fMLP; 10 μM) was added and plates were read on a SpectraMaxL1 (Molecular Devices, San Jose, CA) over 5 minutes as described previously. The area under the curve was calculated by using GraphPad Prism 7 (GraphPad Software, San Diego, CA).

[2] = system: ICAM-1; assay: TNF-α-induced ICAM-1 expression in HUVEC (western blot); assay type: cell-based, human; details: 10 min pretreatment, TNFα 10 ng/ml 5 hours, 200 μg/ml
Method: HUVECs were plated as described above. After 24 hours cells were shifted to M199 media supplemented with 1% FCS, 8 mM Glutamine, 1× Pen-Strep. After 30 minutes, cells were pretreated for 10 minutes with media, ApoM-Fc-S1P (100 nM S1P), Iloprost (100 nM), ApoA1-ApoM (200 μg/ml), ApoA1-ApoM-Iloprost (200 ug/ml; 100 nM Iloprost) or ApoA1-ApoM-S1P (200 μg/ml 100 nM S1P) or in combinations and subsequently treated with TNF-α (10 ng/ml). After 5 hours, cells were lysed with cell lysis buffer (TBS-T; 20 mM Tris-pH8, 160 mM NaCl, 1% Triton, 1× protease inhibitor cocktail (Sigma)), collected and centrifuged at 20,000×g for 5 minutes at 4° C., extracts were analyzed by 10% SDS-PAGE, transferred to nitrocellulose membrane (Bio-Rad), blocked in 5% milk, and probed with antibodies to ICAM-1 (1:1000, sc-8439, Santa Cruz Biotech) and Actin (1:5000, sc-8432, Santa Cruz Biotech). Blots were developed with appropriate secondary antibodies linked to HRP and visualized by chemiluminescence (Immobilon Western, EMD Millipore) using a ChemiDoc Imaging (Biorad).

[3] = system: HUVEC; assay: TEER analysis of endothelial barrier function; assay type: cell-based, human; details: HUVEC; S1P 10-300 nM, A1M 0.8-24 μg/ml; unloaded controls up to 24 μg/ml
Method: Transendothelial Electrical Resistance (TEER) was performed on HUVEC as described previously (Swendeman et al, 2017). Essentially, HUVECs were maintained in HUVEC Growth Medium (HGM; M199 medium supplemented with 10% FCS (Corning), 1:100 Pen-Strep (Sigma), 8 mM Glutamine (Sigma), Heparin (Sigma, 100 U, LMW) and Sheep Brain Extract prepared (REF). All cultures were maintained on Fibrobronectin (2 μg/ml) coated plates. For TEER analysis a 96 well ECIS system (96W10idf PET array, Applied BioPhysics) was employed. Wells were coated with Fibronectin (2 μg/ml) resuspended in saline for 30 minutes at room temp. HUVECs were harvested, resuspended in HGM at a cell density of 25-30×10^3 cells/well and allowed to adhere overnight. Prior to analysis, culture media was removed and replaced with M199 media supplemented with Pen-Strep/Glutamine and 1% FCS for 30 minutes. For stimulation studies, either Iloprost (Cayman Biochemicals) or Iloprost loaded onto ApoA1 or ApoA1-ApoM chaperones, or S1P prepared on ApoA1-ApoM or ApoM-Fc chaperones were added to cultures and TEER studies were performed from 3-24 hours.

[4] = system: NF-κB; assay: TNFα-induced NF-κB luciferase reporter assay in HMEC; assay type: cell-based, human
Method: TNFα-dependent NF-κB signaling was determined by using an NFκB-Luciferase based reporter assay system (pGL4.32[luc2P/NF-κB-RE/Hygro]; Promega). A stable NFκB reporter cell line in human microvascular endothelial cells (HMEC-1; ATCC) was created. HMEC were maintained in 10% FCS/Pen-Strep MCDB media supplemented with 2 mM L-Glutamine (Sigma), EGF (2 ng/ml; R&D systems) and Hydrocortisone (1 ng/ml; Sigma). […] The 5×10^5 reporter cells were distributed to 12 well plates and allowed to adhere for 24 hours. Media was replaced with MCDB media supplemented with 1% FCS, L-Glutamine. […] Samples were extracted using cell lysis buffers (Promega), luciferin substrate was added and the plates were measured for […] at 470 nm for 8-15 minutes in a SpectraMax L 96-well plate reader (Molecular Devices).

B1: ApoM-S1P: ApoM-bound S1P as named in FIG. 6 results; chaperone form not specified (protein, UniProt O95445 1-188, looked up)
Apolipoprotein M: MFHQIWAALLYFYGIILNSIYQCPEHSQLTTLGVDGKEFPEVHLGQWYFIAGAAPTKEELATFDPVDNIVFNMAAGSAPMQLHLRATIRMKDGLCVPRKWIYHLTEGSTDLRTEGRPDMKTELFSSSCPGGIMLNETGQGYQRFLLYNRSPHPPEKCVEEFKSLTSCLDSKAFLLTPRNQEACELSNN
modifications: bound S1P
notes: chaperone form not specified
[1]
  inhibition of neutrophil ROS generation: ~42%

B2: A1M: recombinant fusion protein of Apolipoprotein A1 and Apolipoprotein M with GGGGS linker and 6x His tag (SEQ ID NO: 23) (protein)
chain: MKAVVLAVALVFLTGSQAWHVWQQDEPQSQWDKVKDFANVYVDAVKDSGRDYVSQFESSSLGQQLNLNLLENWDTLGSTVSQLQERLGPLTRDFWDNLEKETDWVRQEMNKDLEEVKQKVQPYLDEFQKKWKEDVELYRQKVAPLGAELQESARQKLQELQGRLSPVAEEFRDRMRTHVDSLRTQLAPHSEQMRESLAQRLAELKSNPTLNEYHTRAKTHLKTLGEKARPALEDLRHSLMPMLETLKTKAQSVIDKASETLTAQTRTRPLGGGGSNQCPEHSQLTALGMDDTETPEPHLGLWYFIAGAASTTEELATFDPVDNIVFNMAAGSAPRQLQLRATIRTKSGVCVPRKWTYRLTEGKGNMELRTEGRPDMKTDLFSSSCPGGIMLKETGQGYQRFLLYNRSPHPPEKCVEEFQSLTSCLDFKAFLVTPRNQEACPLSSKHHHHHH
[2]
  inhibition of TNFα-induced ICAM1 expression: inhibiting downstream inflammatory ICAM1 expression
[3]
  enhancement of endothelial barrier function (TEER): no functional barrier protection; also recorded: did not induce endothelial barrier enhancement
[4]; 100-400 μg/ml, bi-phasic dose-response
  inhibition of TNFα-induced NF-κB activity at higher doses: not as inhibitory
[4]; low doses 25-50 μg/ml
  inhibition of TNFα-induced NF-κB activity: ~25%
